From patent US20240132485A1, “HETEROCYCLIC CULLIN RING UBIQUITIN LIGASE COMPOUNDS AND USES THEREOF” (CEMM - FORSCHUNGSZENTRUM FÜR MOLEKULARE MEDIZIN GMBH, priority 2020, published 2024)

Assays:
[1] = target: Nanoluc_DDB1 (N-terminal Nanoluc luciferase, G4S linker, DDB1 (FL)) (UniProt Q16531); assay: NanoBRET in HEK293T cells, 10 µM compound Example 3-1; class B = 3-4 fold increase
[2] = target: Nanoluc_DDB1 (N-terminal Nanoluc luciferase, G4S linker, DDB1 (FL)) (UniProt Q16531); assay: NanoBRET in HEK293T cells, 10 µM compound Example 3-3; class D = 1-2 fold increase
[3] = target: Nanoluc_DDB1 (N-terminal Nanoluc luciferase, G4S linker, DDB1 (FL)) (UniProt Q16531); assay: NanoBRET in HEK293T cells, 10 µM compound Example 3-6; class C = 2-3 fold increase
[4] = target: Nanoluc_DDB1 (N-terminal Nanoluc luciferase, G4S linker, DDB1 (FL)) (UniProt Q16531); assay: NanoBRET in HEK293T cells, 10 µM compound Example 3-7; class B = 3-4 fold increase
[5] = target: Nanoluc_DDB1 (N-terminal Nanoluc luciferase, G4S linker, DDB1 (FL)) (UniProt Q16531); assay: NanoBRET in HEK293T cells, 10 µM compound Example 3-12; class D = 1-2 fold increase
[6] = target: Nanoluc_DDB1 (N-terminal Nanoluc luciferase, G4S linker, DDB1 (FL)) (UniProt Q16531); assay: NanoBRET in HEK293T cells, 10 µM compound Example 3-18; class C = 2-3 fold increase
[7] = target: Nanoluc_DDB1 (N-terminal Nanoluc luciferase, G4S linker, DDB1 (FL)) (UniProt Q16531); assay: NanoBRET in HEK293T cells, 10 µM compound Example 3-20; class C = 2-3 fold increase
[8] = target: Nanoluc_DDB1 (N-terminal Nanoluc luciferase, G4S linker, DDB1 (FL)) (UniProt Q16531); assay: NanoBRET in HEK293T cells, 10 µM compound Example 3-21; class B = 3-4 fold increase
[9] = target: Nanoluc_DDB1 (N-terminal Nanoluc luciferase, G4S linker, DDB1 (FL)) (UniProt Q16531); assay: NanoBRET in HEK293T cells, 10 µM compound Example 3-24; class B = 3-4 fold increase
[10] = target: Nanoluc_DDB1 (N-terminal Nanoluc luciferase, G4S linker, DDB1 (FL)) (UniProt Q16531); assay: NanoBRET in HEK293T cells, 10 µM compound Example 3-27; class B = 3-4 fold increase
[11] = target: Nanoluc_DDB1 (N-terminal Nanoluc luciferase, G4S linker, DDB1 (FL)) (UniProt Q16531); assay: NanoBRET in HEK293T cells, 10 µM compound Example 3-28; class B = 3-4 fold increase
[12] = target: Nanoluc_DDB1 (N-terminal Nanoluc luciferase, G4S linker, DDB1 (FL)) (UniProt Q16531); assay: NanoBRET in HEK293T cells, 10 µM compound Example 3-29; class B = 3-4 fold increase
[13] = target: Nanoluc_DDB1 (N-terminal Nanoluc luciferase, G4S linker, DDB1 (FL)) (UniProt Q16531); assay: NanoBRET in HEK293T cells, 10 µM compound Example 3-53; class B = 3-4 fold increase
[14] = target: Nanoluc_DDB1 (N-terminal Nanoluc luciferase, G4S linker, DDB1 (FL)) (UniProt Q16531); assay: NanoBRET in HEK293T cells, 10 µM compound Example 3-55; class B = 3-4 fold increase
[15] = target: Nanoluc_DDB1 (N-terminal Nanoluc luciferase, G4S linker, DDB1 (FL)) (UniProt Q16531); assay: NanoBRET in HEK293T cells, 10 µM compound Example 3-59; class C = 2-3 fold increase
[16] = target: Nanoluc_DDB1 (N-terminal Nanoluc luciferase, G4S linker, DDB1 (FL)) (UniProt Q16531); assay: NanoBRET in HEK293T cells, 10-point titration of compound Example 3-3; class E = >10 µM
[17] = target: Nanoluc_DDB1 (N-terminal Nanoluc luciferase, G4S linker, DDB1 (FL)) (UniProt Q16531); assay: NanoBRET in HEK293T cells, 10-point titration of compound Example 3-53; class E = >10 µM
[18] = target: Nanoluc_DDB1 (N-terminal Nanoluc luciferase, G4S linker, DDB1 (FL)) (UniProt Q16531); assay: NanoBRET in HEK293T cells, 10 µM compound Example 3-4; class A = greater than 4-fold increase
[19] = target: Nanoluc_DDB1 (N-terminal Nanoluc luciferase, G4S linker, DDB1 (FL)) (UniProt Q16531); assay: NanoBRET in HEK293T cells, 10 µM compound Example 3-9; class A = greater than 4-fold increase
[20] = target: Nanoluc_DDB1 (N-terminal Nanoluc luciferase, G4S linker, DDB1 (FL)) (UniProt Q16531); assay: NanoBRET in HEK293T cells, 10 µM compound Example 3-14; class A = greater than 4-fold increase
[21] = target: Nanoluc_DDB1 (N-terminal Nanoluc luciferase, G4S linker, DDB1 (FL)) (UniProt Q16531); assay: NanoBRET in HEK293T cells, 10 µM compound Example 3-52; class A = greater than 4-fold increase
[22] = target: Nanoluc_DDB1 (N-terminal Nanoluc luciferase, G4S linker, DDB1 (FL)) (UniProt Q16531); assay: NanoBRET in HEK293T cells, 10 µM compound Example 3-61; class A = greater than 4-fold increase
[23] = target: Nanoluc_DDB1 (N-terminal Nanoluc luciferase, G4S linker, DDB1 (FL)) (UniProt Q16531); assay: NanoBRET in HEK293T cells, 10 µM compound Example 3-66; class A = greater than 4-fold increase
[24] = target: Nanoluc_DDB1 (N-terminal Nanoluc luciferase, G4S linker, DDB1 (FL)) (UniProt Q16531); assay: NanoBRET in HEK293T cells, 10-point titration of compound Example 3-44; class A = EC50<=0.25 µM
[25] = target: Nanoluc_DDB1 (N-terminal Nanoluc luciferase, G4S linker, DDB1 (FL)) (UniProt Q16531); assay: NanoBRET in HEK293T cells, 10-point titration of compound Example 3-52; class A = EC50<=0.25 µM
[26] = target: Nanoluc_DDB1 (N-terminal Nanoluc luciferase, G4S linker, DDB1 (FL)) (UniProt Q16531); assay: NanoBRET in HEK293T cells, 10-point titration of compound Example 3-62; class A = EC50<=0.25 µM

Chain of Nanoluc_DDB1 (N-terminal Nanoluc luciferase, G4S linker, DDB1 (FL)) (Q16531 other isoform, or with tags, fused parts or gaps): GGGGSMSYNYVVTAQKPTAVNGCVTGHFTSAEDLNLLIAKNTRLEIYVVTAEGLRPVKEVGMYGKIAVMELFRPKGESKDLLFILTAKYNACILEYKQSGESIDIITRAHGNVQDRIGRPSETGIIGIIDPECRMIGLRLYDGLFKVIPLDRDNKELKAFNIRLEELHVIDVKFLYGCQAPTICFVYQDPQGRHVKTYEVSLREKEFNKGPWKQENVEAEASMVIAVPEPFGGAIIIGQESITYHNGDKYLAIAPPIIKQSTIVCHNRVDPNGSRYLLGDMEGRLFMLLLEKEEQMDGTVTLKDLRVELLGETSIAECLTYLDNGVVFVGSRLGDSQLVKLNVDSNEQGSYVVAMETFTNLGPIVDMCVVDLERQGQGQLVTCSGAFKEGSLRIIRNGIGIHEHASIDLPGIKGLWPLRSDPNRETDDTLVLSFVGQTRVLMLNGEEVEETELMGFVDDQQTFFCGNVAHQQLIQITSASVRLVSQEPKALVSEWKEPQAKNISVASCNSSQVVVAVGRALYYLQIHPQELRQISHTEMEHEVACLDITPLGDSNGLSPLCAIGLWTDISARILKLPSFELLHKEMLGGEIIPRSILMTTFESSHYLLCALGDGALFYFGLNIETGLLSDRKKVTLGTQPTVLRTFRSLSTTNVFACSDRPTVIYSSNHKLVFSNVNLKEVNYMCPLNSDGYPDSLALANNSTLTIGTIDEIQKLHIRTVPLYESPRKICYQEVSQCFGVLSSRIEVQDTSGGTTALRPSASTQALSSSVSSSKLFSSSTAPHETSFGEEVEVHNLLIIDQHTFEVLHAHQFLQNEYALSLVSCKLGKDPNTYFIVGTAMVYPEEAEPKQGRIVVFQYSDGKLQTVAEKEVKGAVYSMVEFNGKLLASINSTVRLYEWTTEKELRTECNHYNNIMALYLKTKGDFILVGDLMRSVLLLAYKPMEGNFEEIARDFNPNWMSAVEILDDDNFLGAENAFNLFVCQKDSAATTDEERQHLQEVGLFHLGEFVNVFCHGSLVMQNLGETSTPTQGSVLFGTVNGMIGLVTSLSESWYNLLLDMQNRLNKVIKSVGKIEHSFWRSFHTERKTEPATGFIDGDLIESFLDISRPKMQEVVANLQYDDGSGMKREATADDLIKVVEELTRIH

Work on “HaloTag_CDK12 (N-terminal HaloTag, G4S linker, CDK12 (713-1052)) (from UniProt Q9NYV4 713-1052) (enzyme)” yielded a NanoBRET fold increase [1] of 3 to 4 fold, a NanoBRET fold increase [2] of 1 to 2 fold and a NanoBRET fold increase [3] of 2 to 3 fold. The NanoBRET fold increase [4] was 3 to 4 fold, the NanoBRET fold increase [5] was 1 to 2 fold and the NanoBRET fold increase [6] was 2 to 3 fold. For the same substance, the NanoBRET fold increase [7] was 2 to 3 fold, the NanoBRET fold increase [8] was 3 to 4 fold and the NanoBRET fold increase [9] was 3 to 4 fold. For the same substance, the NanoBRET fold increase [10] was 3 to 4 fold, the NanoBRET fold increase [11] was 3 to 4 fold and the NanoBRET fold increase [12] was 3 to 4 fold. It also gave a NanoBRET fold increase [13] of 3 to 4 fold, a NanoBRET fold increase [14] of 3 to 4 fold and a NanoBRET fold increase [15] of 2 to 3 fold. For the same substance, the EC50 [16] was > 10000 nM, the EC50 [17] was > 10000 nM and the NanoBRET fold increase [18] was > 4 fold. For the same substance, the NanoBRET fold increase [19] was > 4 fold, the NanoBRET fold increase [20] was > 4 fold and the NanoBRET fold increase [21] was > 4 fold. For the same substance, the NanoBRET fold increase [22] was > 4 fold, the NanoBRET fold increase [23] was > 4 fold and the EC50 [24] was < 250 nM. For the same substance, the EC50 [25] was < 250 nM and the EC50 [26] was < 250 nM.
